# Assay: Average particle diameter, polydispersity index and Zeta potential of liposome (Complex), Example 8
# Assay type: physicochemical
# Protocol: COATSOME/SS-20 (Nippon Oil & Fats), DOPE, cholesterol and DMG-PEG were dissolved into ethanol at a molar ratio of 5:3:1:0.3, to obtain a lipid solution. Five sets of 50 μL of lipid solutions put into tubes were prepared, and 50 μL of peptide-nucleic-acid solutions (1) to (4) and (7) of Example 6 were dropped thereto while stirring each lipid solution, thereby forming liposomes. 400 μL of 10 mM-HEPES (pH: 5.4) was added to each of the liposome solutions to make a total amount of 500 μL (this liposome solution will be referred to as “Complex” hereinafter).
# The average particle diameter, polydispersity index and Zeta potential of liposome were investigated using the Complex. The average particle diameter, polydispersity index and Zeta potential were measured using a zetasizer.
sequence,measurement,value
RQRQRYYRQRQRGGRRRRRR (Nucleic acid condensing peptide) [mHP-1],Average particle diameter (zAve),244.7 nm
same,Polydispersity index (PDI),0.193
same,Zeta potential,31.6 mV
